Measurements from patent US20230183291A1, “ANTI-INFECTIVE BICYCLIC PEPTIDE LIGANDS” (priority 2020, published 2023).
Numbered stars: 1 amine (or outer) side, 2 acyl side, 3 side chain; on linkers, the order of the positions; unused ones are H or OH. Bridge positions count the residues as written; N and C are the ends. Square brackets hold non-standard residues; d marks the D form. Primed or numbered codes have the meaning given here. Ends that are not written are not given here. Arg(Me)′ = delta-N-methyl arginine, CN(CCC[C@H](N[*:1])C(=O)[*:2])C(=N)N; TATA = O=C(CC[*:1])N1CN(C(=O)CC[*:2])CN(C(=O)CC[*:3])C1; 1Nal = N[C@@H](Cc1cccc2ccccc12)C(=O)O; 2Nal = N[C@@H](Cc1ccc2ccccc2c1)C(=O)O; hArg = N=C(N)NCCCC[C@H](N)C(=O)O; Aib = CC(C)(N)C(=O)O; Sar = CNCC(=O)O

B1: BCY15285 (peptide)
peptide: ACTRPWCHSLLPRATCA[Sar][Sar][Sar][Sar][Sar][Sar]K(fluorescein)
modifications: linker 2-7-16 via TATA
B2: BCY15420 (peptide)
peptide: ACLELYQCWRGKCA[Sar][Sar][Sar][Sar][Sar][Sar]K(fluorescein)
modifications: linker 2-8-13 via TATA
B3: BCY15288 (peptide)
peptide: ACHKFPCRDPQQYLFCA[Sar][Sar][Sar][Sar][Sar][Sar]K(fluorescein)
modifications: linker 2-7-16 via TATA
B4: BCY15419 (peptide)
peptide: ACAPILCRWAERQGYCA[Sar][Sar][Sar][Sar][Sar][Sar]K(fluorescein)
modifications: linker 2-7-16 via TATA
B5: BCY15423 (peptide)
peptide: ACNAVLCSWARANSFCA[Sar][Sar][Sar][Sar][Sar][Sar]K(fluorescein)
modifications: linker 2-7-16 via TATA
B6: BCY15422 (peptide)
peptide: ACLEVYKCWRGKCA[Sar][Sar][Sar][Sar][Sar][Sar]K(fluorescein)
modifications: linker 2-8-13 via TATA
B7: BCY16874 (peptide)
peptide: ACNAVLCSWA[hArg]ANSFCA[Sar][Sar][Sar][Sar][Sar][Sar]K(fluorescein)
modifications: linker 2-7-16 via TATA
B8: BCY15283 (peptide)
peptide: ACVRSHCSSLLPRIHCA[Sar][Sar][Sar][Sar][Sar][Sar]K(fluorescein)
modifications: linker 2-7-16 via TATA
B9: BCY16863 (peptide)
peptide: ACNAVLCSWA[Arg(Me)′]ANSFCA[Sar][Sar][Sar][Sar][Sar][Sar]K(fluorescein)
modifications: linker 2-7-16 via TATA
B10: BCY16872 (peptide)
peptide: ACNAVLCSW[Aib]RANSFCA[Sar][Sar][Sar][Sar][Sar][Sar]K(fluorescein)
modifications: linker 2-7-16 via TATA
B11: BCY16871 (peptide)
peptide: ACAN[Aib]VLCSWARANSFCA[Sar][Sar][Sar][Sar][Sar][Sar]K(fluorescein)
modifications: linker 2-8-17 via TATA
B12: BCY16866 (peptide)
peptide: ACNAVLCS[1Nal]ARANSFCA[Sar][Sar][Sar][Sar][Sar][Sar]K(fluorescein)
modifications: linker 2-7-16 via TATA
B13: BCY15284 (peptide)
peptide: ACGRQFCHTLMPRHLCA[Sar][Sar][Sar][Sar][Sar][Sar]K(fluorescein)
modifications: linker 2-7-16 via TATA
B14: BCY15421 (peptide)
peptide: ACPSQYKCWRGKCA[Sar][Sar][Sar][Sar][Sar][Sar]K(fluorescein)
modifications: linker 2-8-13 via TATA
B15: BCY16867 (peptide)
peptide: ACNAVLCS[2Nal]ARANSFCA[Sar][Sar][Sar][Sar][Sar][Sar]K(fluorescein)
modifications: linker 2-7-16 via TATA

How the values were obtained:
[1] = biological target: ACE2 protein (Homo sapiens (Human)), Q9BYF1; experiment: fluorescence polarisation direct binding, 1 nM fluorescein tracer, ACE2 titrated
[2] = biological target: Biotinylated Human ACE2, His, Avitag protein (ACROBiosystems, AC2-H82E6) (human), Q9BYF1; experiment: SPR single cycle kinetics, ACE2 captured on CAP chip, peptide analyte; geometric mean
Biotinylated Human ACE2, His, Avitag protein (ACROBiosystems, AC2-H82E6) (human), Q9BYF1, sequence (Q9BYF1 18-740 limits assumed): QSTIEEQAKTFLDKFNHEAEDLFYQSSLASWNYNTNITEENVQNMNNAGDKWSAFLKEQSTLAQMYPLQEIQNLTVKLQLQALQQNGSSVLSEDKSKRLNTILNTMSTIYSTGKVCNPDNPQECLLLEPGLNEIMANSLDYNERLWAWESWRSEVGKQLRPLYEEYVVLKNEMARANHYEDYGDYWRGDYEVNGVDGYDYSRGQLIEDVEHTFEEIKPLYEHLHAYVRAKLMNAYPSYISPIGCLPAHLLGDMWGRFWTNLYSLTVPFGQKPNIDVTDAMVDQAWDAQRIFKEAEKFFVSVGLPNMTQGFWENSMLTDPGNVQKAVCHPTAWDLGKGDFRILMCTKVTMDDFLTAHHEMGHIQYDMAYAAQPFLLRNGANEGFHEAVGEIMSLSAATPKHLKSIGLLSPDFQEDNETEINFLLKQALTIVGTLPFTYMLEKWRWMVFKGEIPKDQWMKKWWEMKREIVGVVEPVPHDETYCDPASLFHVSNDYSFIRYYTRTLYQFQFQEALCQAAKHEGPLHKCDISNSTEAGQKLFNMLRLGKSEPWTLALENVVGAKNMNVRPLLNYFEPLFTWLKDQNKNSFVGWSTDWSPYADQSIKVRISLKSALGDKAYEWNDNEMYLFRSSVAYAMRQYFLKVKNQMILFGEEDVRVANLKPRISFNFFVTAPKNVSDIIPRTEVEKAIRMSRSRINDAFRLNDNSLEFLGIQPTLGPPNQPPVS

ACE2 protein (Homo sapiens (Human)), Q9BYF1, sequence (Q9BYF1 18-740 limits assumed): as above

Binder	Kd [1] [nM]	Kd [2] [nM]
B1	157	
B2	98.3	
B3	225	
B4	20.4	
B5	5.53	3.4
B6	130	
B7	62	4.1
B8	21.9	
B9		3.5
B10	2.9	8.9
B11	5.8	7.7
B12	2.6	2.1
B13	65.5	
B14	134	
B15	50.7	
